In patent US20240117074A1 (published 2024):
Positions count from the first letter of the chain named.

What was measured:
[1] = molecular target: CD40 expressed on cells (CD40 reporter cells, HEK Blue CD40L cells, primary B cells, tumor APCs) (human, UniProt P25942 21-277); test: cell-based or functional assay
[2] = molecular target: T1, human CEACAM5, recombinant soluble (hCEACAM-5, R&D Systems #4128-CM-050) (human, UniProt P06731 35-685); test: Octet BLI, captured bsAb, monomeric CEACAM5 in solution
T1 construct: Bought protein; also called Human CEACAM5-His; monomeric human CEACAM5-His
T1 sequence (looked up): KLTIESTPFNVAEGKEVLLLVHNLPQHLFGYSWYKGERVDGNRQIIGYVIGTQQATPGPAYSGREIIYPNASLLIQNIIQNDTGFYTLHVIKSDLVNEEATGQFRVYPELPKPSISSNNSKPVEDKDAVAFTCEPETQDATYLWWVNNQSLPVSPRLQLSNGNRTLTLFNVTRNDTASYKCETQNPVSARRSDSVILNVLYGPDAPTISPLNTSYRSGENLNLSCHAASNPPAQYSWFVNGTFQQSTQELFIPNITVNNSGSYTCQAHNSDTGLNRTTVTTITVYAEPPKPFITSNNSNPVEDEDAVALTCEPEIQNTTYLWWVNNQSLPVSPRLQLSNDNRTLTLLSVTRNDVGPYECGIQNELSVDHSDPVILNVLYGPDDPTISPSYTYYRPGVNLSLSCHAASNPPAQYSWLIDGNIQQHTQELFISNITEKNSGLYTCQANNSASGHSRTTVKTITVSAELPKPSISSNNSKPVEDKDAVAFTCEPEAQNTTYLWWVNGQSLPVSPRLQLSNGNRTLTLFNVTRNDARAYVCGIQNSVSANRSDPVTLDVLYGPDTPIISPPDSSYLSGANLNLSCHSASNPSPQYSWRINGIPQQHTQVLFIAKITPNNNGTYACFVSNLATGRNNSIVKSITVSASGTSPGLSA

[3] = molecular target: T1, human CEACAM5, recombinant soluble …; test: Octet BLI, captured bsAb, soluble antigen
[4] = molecular target: T1, human CEACAM5, recombinant soluble …; test: dual target ELISA: CEACAM5 coated, biotinylated hCD40-muIg detection
Protocol: ELISA plates were coated with human EpCAM, bsAb was added followed by detection using goat anti human-kappa light chain-HRP.
96-well plates were coated with 0.5 μg/mL antigen, hCEACAM-1 (2244-CM-050, R&D Systems), hCEACAM-5 (4128-CM-050, R&D Systems), hCEACAM-6 (3934-CM-050, R&D Systems) or CEACAM-8 (9639-CM-050, R&D Systems) in PBS over night at 4° C. After washing in PBS/0.05% Tween 20 (PBST), the plates were blocked with PBST, 2% BSA for at least 30 minutes at room temperature before a second round of washing. RUBY bsAbs, diluted in PBST, 0.5% BSA, were then added and allowed to bind for at least 1 hour at room temperature. […] Finally, a final round of washing was performed and bound complexes detected using SuperSignal Pico Luminescent as substrate and luminescence signals were measured using Fluostar Optima.

[5] = molecular target: T2, biotinylated human CD40-mouse Fc (Ancell #504-030) (human, UniProt P25942 21-193, biotinylated); test: Octet BLI, captured CD40mFc-biotin, bsAb in solution
T2 construct: Bought fusion protein; also called hCD40-muIg; CD40mFc-biotin; not shown: mouse Ig Fc of the bought fusion protein
T2 sequence (P25942 21-193): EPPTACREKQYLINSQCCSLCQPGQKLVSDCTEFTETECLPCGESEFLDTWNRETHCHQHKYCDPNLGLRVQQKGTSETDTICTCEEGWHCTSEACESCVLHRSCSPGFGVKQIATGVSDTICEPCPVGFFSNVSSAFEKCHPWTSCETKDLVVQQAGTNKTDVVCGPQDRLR

[6] = molecular target: T3, monomeric Cynomolgus CEACAM5-His (Sino Biological #90891-C08H) (cynomolgus); test: Octet BLI, captured bsAb, soluble antigen
T3 chain: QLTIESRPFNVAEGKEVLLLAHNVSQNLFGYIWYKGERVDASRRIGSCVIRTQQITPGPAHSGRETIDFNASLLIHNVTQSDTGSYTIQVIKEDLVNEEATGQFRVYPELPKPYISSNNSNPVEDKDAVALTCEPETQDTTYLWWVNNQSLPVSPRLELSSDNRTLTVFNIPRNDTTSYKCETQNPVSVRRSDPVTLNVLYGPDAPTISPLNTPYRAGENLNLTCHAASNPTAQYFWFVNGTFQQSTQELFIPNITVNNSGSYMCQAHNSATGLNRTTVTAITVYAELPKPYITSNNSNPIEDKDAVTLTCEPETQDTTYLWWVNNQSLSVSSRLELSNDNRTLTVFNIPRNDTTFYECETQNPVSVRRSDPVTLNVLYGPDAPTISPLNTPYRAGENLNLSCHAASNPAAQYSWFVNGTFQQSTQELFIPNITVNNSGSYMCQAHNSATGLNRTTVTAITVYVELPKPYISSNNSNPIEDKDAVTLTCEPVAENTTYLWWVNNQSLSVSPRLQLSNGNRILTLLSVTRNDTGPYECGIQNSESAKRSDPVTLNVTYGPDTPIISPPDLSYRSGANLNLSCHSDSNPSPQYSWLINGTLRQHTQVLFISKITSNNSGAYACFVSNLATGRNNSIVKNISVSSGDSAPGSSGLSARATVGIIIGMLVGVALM

Chain of CD40 expressed on cells (CD40 reporter cells, HEK Blue CD40L cells, primary B cells, tumor APCs) (P25942 21-277): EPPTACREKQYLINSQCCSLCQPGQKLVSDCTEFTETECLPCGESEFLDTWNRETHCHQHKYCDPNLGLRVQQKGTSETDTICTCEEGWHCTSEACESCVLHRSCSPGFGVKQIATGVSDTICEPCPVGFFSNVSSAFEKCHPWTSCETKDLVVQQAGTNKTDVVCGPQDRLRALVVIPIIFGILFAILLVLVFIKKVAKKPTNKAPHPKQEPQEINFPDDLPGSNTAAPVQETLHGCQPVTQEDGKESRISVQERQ

B1: AC_05339 (bispecific antibody)
chain 1: not shown
chain 2: DIQMTQSPSSLSASVGDRVTITCRASQSISSYLNWYQEKPGKAPKLLIYAASSLQSGVPSRFSGSGSGTDFTLTISSLQPEDFATYYCQQAGNPHTFGQGTKLEIKRTVAAPSVFIFPPSDEQLKSGTASVVCYLNNFYPREAKVQWKVDNALQSGNSQESVTEQDSKDSTYSLWSTLTLSKADYEKHKVYACEVTHQGLSSPVTKSFNRGEC
chain 3: EVQLLESGGGLVQPGGSLRLSCAASGFTFSTYGMHWVREAPGKGLEWLSYISGGSSYIFYADSVKGRFTISRDNSKNTLYLQMNSLRAEDTAVYYCARILRGGSGMDLWGQGTLVTVSSASTKGPSVFPLAPSSKSTSGGTAALGCLVKDYFPEPVTVSWNSGALTSGVHTFPAVLQSSGLYSLTSVVEVPSSSLGTQTYICNVNHKPSNTKVDKKVEPKSC
EC50 of HEK Blue CD40L reporter activation (SEAP), CHO-CEACAM5 crosslinking, 0 Raji sink cells/well [1]: 0.03 nM | EC50 of HEK Blue CD40L reporter activation (SEAP), CHO-CEACAM5 crosslinking, 10 000 Raji sink cells/well [1]: 0.05 nM | EC50 of HEK Blue CD40L reporter activation (SEAP), CHO-CEACAM5 crosslinking, 30 000 Raji sink cells/well [1]: 0.08 nM | EC50 of HEK Blue CD40L reporter activation (SEAP), CHO-CEACAM5 crosslinking, 90 000 Raji sink cells/well [1]: 0.23 nM | Kd [2]: 1.8 nM | koff [2]: 0.00042 s⁻¹ | kon [2]: 240000 M⁻¹ s⁻¹ | Kd [3]: < 0.001 nM | koff [3]: < 1e-07 s⁻¹ | kon [3]: 520000 M⁻¹ s⁻¹

B2: Multi39 (bispecific antibody)
heavy 1: not shown
light: not shown
heavy 2: EVQLLESGGGLVQPGGSLRLSCAASGFTFYDHAMSWVREAPGKGLEWVSAISGSYGSTGYADSVKGRFTISRDNSKNTLYLQMNSLRAEDTAVYYCARWGGWAGDIDYWGQGTLVTVSSASTKGPSVFPLAPSSKSTSGGTAALGCLVKDYFPEPVTVSWNSGALTSGVHTFPAVLQSSGLYSLTSVVEVPSSSLGTQTYICNVNHKPSNTKVDKKVEPKSC
notes: copies: 2 + 2 + 2
binding result [4]: binds

B3: AC_05293 (bispecific antibody)
chain 1: EVQLLESGGGLVQPGGSLRLSCAASGFTFSSYAMSWVRQAPGKGLEWVSGIGSYGGGTYYADSVKGRFTISRDNSKNTLYLQMNSLRAEDTAVYYCARYVNFGMDYWGQGTLVTVSS
chain 2: DIQMTQSPSSLSASVGDRVTITCRASQSISSYLNWYQQKPGKAPKLLIYAASSLQSGVPSRFSGSGSGTDFTLTISSLQPEDFATYYCQQYGRNPPTFGQGTKLEIK
chain 3: EVQLLEQSGAELVRPGTSVKISCKASGYAFTNYWLGWVKQRPGHGLEWIGDIFPGSGNIHYNEKFKGKATLTADKSSSTAYMQLSSLTFEDSAVYFCARLRNWDEPMDYWGQGTTVTVSS
chain 4: ELVMTQSPSSLTVTAGEKVTMSCKSSQSLLNSGNQKNYLTWYQQKPGQPPKLLIYWASTRESGVPDRFTGSGSGTDFTLTISSVQAEDLAVYYCQNDYSYPLTFGAGTKLEIK
Kd [5]: 76 nM | koff [5]: 0.00062 s⁻¹ | kon [5]: 8300 M⁻¹ s⁻¹

B4: AC_05300 (bispecific antibody)
chain 1: B3 chain 3
chain 2: B3 chain 4
chain 3: B3 chain 1
chain 4: B3 chain 2
Kd [5]: 8.5 nM | koff [5]: 0.0046 s⁻¹ | kon [5]: 540000 M⁻¹ s⁻¹

B5: AC_05330 (bispecific antibody)
chain 1: EVQLLESGGGLVQPGGSLRLSCAASGFTFSTYGMHWVRQAPGKGLEWLSYISGGSSYIFYADSVRGRFTISRDNSENALYLQMNSLRAEDTAVYYCARILRGGSGMDLWGQGTLVTVSS
chain 2: QSVLTQPPSASGTPGQRVTISCTGSSSNIGAGYNVYWYQQLPGTAPKLLIYGNINRPSGVPDRFSGSKSGTSASLAISGLRSEDEADYYCAAWDKSISGLVFGGGTKLTVLG
chain 3: not shown
chain 4: B3 chain 2 with Y91T, G92Y, R93G, N94Y, P95L, P96H
Kd [5]: 0.45 nM | koff [5]: 1.6e-05 s⁻¹ | kon [5]: 35000 M⁻¹ s⁻¹

B6: AC_05331 (bispecific antibody)
chain 1: not shown
chain 2: B3 chain 2 with Y91T, G92Y, R93G, N94Y, P95L, P96H
chain 3: B5 chain 1
chain 4: B5 chain 2
Kd [5]: 0.23 nM | koff [5]: 8.1e-06 s⁻¹ | kon [5]: 36000 M⁻¹ s⁻¹

B7: AC_05355 (bispecific antibody)
chain 1: not shown
chain 2: DIQMTQSPSSLSASVGDRVTITCRASENIFSYLAWYQEKPGKAPKLLIYNTRTLQSGVPSRFSGSGSGTDFTLTISSLQPEDFATYYCQHHYGTPFTFGQGTKLEIKRTVAAPSVFIFPPSDEQLKSGTASVVCYLNNFYPREAKVQWKVDNALQSGNSQESVTEQDSKDSTYSLWSTLTLSKADYEKHKVYACEVTHQGLSSPVTKSFNRGEC
chain 3: B1 chain 3
Kd [3]: 1 nM | koff [3]: 0.00053 s⁻¹ | kon [3]: 510000 M⁻¹ s⁻¹ | Kd [6]: 20 nM | koff [6]: 0.0038 s⁻¹ | kon [6]: 190000 M⁻¹ s⁻¹
